# Experimental data reported in the supplement of paper PMC12042874.
# ± gives the uncertainty stated by the source.
# Test: amyloid nucleation score (Sup35N fusion, yeast selection) (log enrichment); library NNK3; higher = more nucleation; inactive = no reads after selection
# Outline: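 The nucleation score is the log enrichment of output over input reads, calculated with DiMSum and centred on the mode score of non-aggregating sequences. Sequences with under 100 input reads were excluded. Reads came from Illumina sequencing of plasmid inserts from psi-negative yeast expressing Sup35N fused to peptides of 20 random codons, induced 24 hours with 100 μM copper sulfate and grown 7 days at 30°C without adenine and uracil.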
row,Substance,amyloid nucleation score
1,KYVVSYLGFKFGWKHYSKYY,inactive
2,IIGTLSRMLDIGIIFVTT,-0.154 ± 0.88
3,IYCPYVGCVMSLGTGCM,1.06 ± 0.19
4,VFYSLMILSLLNSRRDGLHQ,0.429 ± 0.48
5,ITKQEVLSLTIFRMAEGVQW,0.382 ± 0.4
6,NRDNAEQYYRPTVTVCSEGW,inactive
7,MQAQRKYMSMRNRYQVAKVE,inactive
8,VPEWG,inactive
9,RGLYKVD,inactive
10,NSSAKGFVQV,inactive
11,DMKNWPKDYQ,inactive
12,LLLFRGAYRLQISAFCLCTE,inactive
13,RNSKWWLYLKSARSCYLGWW,inactive
14,VSNDLWATVYHWGL,inactive
15,TSNRGDWVHFTVYSFYESTM,inactive
16,YIINARPYVVVTDGLKDETA,inactive
17,SITQSRLTP,-0.196 ± 0.36
18,CLRECWCSGNTTHGSHWSTC,inactive
19,ESSHRTSIFRDWCNSLLI,inactive
20,GDERGLLMYVPG,inactive
21,IQDFSCFQRSEAVTIQGRS,inactive
22,HVYNLLRVVF,inactive
23,WPFHWSFSFVISMYMSWGNS,inactive
24,GYQDSIGFSSR,inactive

row,Substance,amyloid nucleation score
1,YGLSFHDLYGCCLRLGIGMD,1.63 ± 0.081
2,LYEGD,inactive
3,RYLDQLI,inactive
4,KGQYLSIGYNNFRG,-0.764 ± 1.8
5,GTQVYTGGRVYERLRVMSCV,inactive
6,RFSTGDIWRYPDGNMFWTSL,inactive
7,FRCPMFFNCSSVLTSHVSLA,1.34 ± 0.16
8,SQKFGALVFI,inactive
9,FYFGTG,inactive
10,SFFARGVFFAIRQARQGNSG,inactive
11,HWNCGVTNSGEFFALAVGFI,inactive
12,NFGVMLGVNTLSMSSRVVLG,0.6 ± 0.26
13,KNMWTGSFDVFRRWPISLKG,inactive
14,VLGLFSTYDSFVCFN,inactive
15,LMPSDFISSYNSLYDGCLGG,inactive
16,GLFRGYGVTLVRRLWSRIMY,inactive
17,SNTHLYCLMFRLPCRILDRK,inactive
18,FSHVV,inactive
19,WSDIIVGIRTNCDVLFSGAY,inactive
20,IYTSGWINYSIARFACCIRW,inactive
21,PTRFMTMKETKPVCWWLGNR,-0.114 ± 1.1
22,RSVKVYLRCSLSNCVILLGT,2.58 ± 0.049
23,CANANVP,inactive
24,LRWYPVDMI,inactive

row,Substance,amyloid nucleation score
1,DISFLSRSRYRKSHGVVNFS,0.206 ± 0.43
2,VKTINSWIRWVTLRILQVVS,inactive
3,FFHSIPKFFRAQKMCTYVPP,inactive
4,HRVDND,inactive
5,TKIEVNS,inactive
6,HFVLWHLKGSQFGGSVAVIQ,inactive
7,RANWLGLVTVGS,inactive
8,RVLRLLRVDAGHNLI,-0.029 ± 0.81
9,FHLKKHWGKHGYFFMEDRRT,inactive
10,VSNYTSRNNYVNCQLELTRA,inactive
11,IICLSGGDFRRYELDHSN,inactive
12,LLLRCANHFCYMDATDIYFR,inactive
13,GYVVQIMFYILVVHTTWSSA,-0.451 ± 0.98
14,LYVLSGVGICIRGDRLSC,0.535 ± 0.36
15,LLFENIQK,inactive
16,DRPRQRTAFVYRQWLMYYQ,inactive
17,YALIQIPKYRLGCRGWTMRG,0.172 ± 0.27
18,GNNPLVVKNLNRKCL,-0.357 ± 0.51
19,LRHWRMRLSIGN,inactive
20,MVVIIFDWIPHLFNLYMYVI,inactive
21,FFSCYVESNSVMGKDFCRVM,0.788 ± 0.12
22,YIFQICRFGIYYVRSVYTTY,inactive
23,LQVSIRLTLTNHVDRHTMPM,1.36 ± 0.15
24,LMDFLKYAMFRGTMVCW,inactive

row,Substance,amyloid nucleation score
1,ECTLGCTSDWGNLKARHGVR,inactive
2,IHSPKLLAGAM,inactive
3,KLLLMGCRDVYFSYRIFM,3 ± 0.054
4,LRDTGWLIGLMCCSIQIGSG,2.13 ± 0.069
5,FVTAAN,inactive
6,IFHLKIAYFPNYGRITLYYL,1.65 ± 0.091
7,NGFVI,inactive
8,TIIFRSYVELVDELWLDAAL,inactive
9,FVFMTDGGVLNVLAWCISEA,inactive
10,LCMFPLIWFILLFRFFKLWG,inactive
11,DVVSLGIMQKGSWSGCML,inactive
12,AEGYFRSLSTIRGSLLDLSA,inactive
13,VCQPNRSQIQGIFLLRNYSV,inactive
14,KLGIRPDRISVTWCLSNTTV,-0.473 ± 1.3
15,RSYARRSTGILAR,-0.112 ± 0.75
16,VVIFFRIQRVTCVWNVLL,inactive
17,YVPIIWYASQHLVPSKSYSA,inactive
18,WMPQFCLRCSSVV,inactive
19,SERPDFMDYEEMLGYAVKWR,inactive
20,CANNYGGMLRECQVSGYSCM,inactive
21,INPMGITDSVCSTAASG,inactive
22,SFITTCIYRNVSVFCDHSAE,inactive
23,TNITWYTRVLNGLYYTM,inactive
24,KSYLAVVSYFGFTKKADPTG,inactive

row,Substance,amyloid nucleation score
1,AELSIADPTEMSGRVFACNV,inactive
2,GFEDSSIT,inactive
3,ICNFHSSRPLNIS,inactive
4,SYNFRDCYQCLRDKVDKICA,inactive
5,EGSIQMWTGTSLLDTRIWGG,inactive
6,SMATDAWGTTKF,inactive
7,SISVNVCRWTRCLGTQLLSV,inactive
8,HTILSTTTYMKMSQYSLW,inactive
9,LLKLNS,inactive
10,QMLLDRRGKSTAATRVAPTD,inactive
11,NDGFQYRGHRWCLYNHL,inactive
12,SSFLFVKLLIMNRLVQKIYA,inactive
13,ARYDRS,inactive
14,NCCNPCFVNLQSR,2.66 ± 0.066
15,SNCRCIEGVFYHTYNQKAVR,inactive
16,VVNRHGYLAMLK,inactive
17,HRVRYVGPENSQNLCIRDYY,inactive
18,VYDDSTIDT,inactive
19,IDQDFMTVIRQS,inactive
20,YVNLHPMLATAAIYVNSSAG,inactive
21,WCFWNSC,inactive
22,HSSNWCSVVITLCCTLRKDY,0.748 ± 0.19
23,AYLTI,inactive
